# Laboratory results reported in publication PMC10786891, “Massively parallel profiling of RNA-targeting CRISPR-Cas13d”.
# Changes are numbered by the printed parent chain.
# T1: EsCas13d, nuclease-dead (Eubacterium siraeum, UniProt B0MS50, R295A;H300A;R849A;H854A)
# T1 sequence: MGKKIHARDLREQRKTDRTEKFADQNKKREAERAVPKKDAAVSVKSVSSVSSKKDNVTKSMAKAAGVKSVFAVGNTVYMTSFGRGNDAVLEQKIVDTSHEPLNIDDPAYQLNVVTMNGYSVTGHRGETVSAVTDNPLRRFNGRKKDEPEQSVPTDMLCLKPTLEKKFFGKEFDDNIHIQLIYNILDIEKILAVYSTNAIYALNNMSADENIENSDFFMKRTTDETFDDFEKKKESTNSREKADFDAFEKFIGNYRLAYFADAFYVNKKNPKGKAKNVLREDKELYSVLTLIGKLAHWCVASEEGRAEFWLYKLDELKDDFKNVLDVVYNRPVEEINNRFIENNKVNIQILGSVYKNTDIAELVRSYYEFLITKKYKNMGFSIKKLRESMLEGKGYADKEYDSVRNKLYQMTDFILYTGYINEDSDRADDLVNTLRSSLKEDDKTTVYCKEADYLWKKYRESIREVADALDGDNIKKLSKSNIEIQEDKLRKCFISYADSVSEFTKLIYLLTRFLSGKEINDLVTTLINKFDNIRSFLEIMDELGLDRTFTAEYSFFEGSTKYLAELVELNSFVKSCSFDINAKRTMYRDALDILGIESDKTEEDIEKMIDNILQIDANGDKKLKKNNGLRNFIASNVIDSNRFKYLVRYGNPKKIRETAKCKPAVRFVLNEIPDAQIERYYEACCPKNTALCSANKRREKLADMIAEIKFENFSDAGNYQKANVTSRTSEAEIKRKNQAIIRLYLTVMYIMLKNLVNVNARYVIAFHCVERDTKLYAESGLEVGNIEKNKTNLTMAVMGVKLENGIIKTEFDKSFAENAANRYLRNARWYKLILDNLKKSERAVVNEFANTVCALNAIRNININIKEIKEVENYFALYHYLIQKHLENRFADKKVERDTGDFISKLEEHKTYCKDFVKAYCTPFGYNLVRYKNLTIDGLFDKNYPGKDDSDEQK
# B1: target 1 MT 5'PFS ACA 3'PFS ACU (mixed)
# RNA 1: CACCCGUGCAAAAAUGCAGGGGUCUAAAACUGAGCGGAUAACCUCUCUAUGG
# RNA 2: GGGAAUGGAUCCACAUCUACGAAUUCACACCAUAGAGAGGUUAUCCGCUCAACUAGAUCGGAAGAGCACACGU
# B2: target 1 MT 5'PFS ACG 3'PFS UUC (mixed)
# RNA 1: B1 RNA 1
# RNA 2: B1 RNA 2 with A29G, A52U, C53U, U54C
# B3: target 1 MT 5'PFS UGA 3'PFS CCG (mixed)
# RNA 1: B1 RNA 1
# RNA 2: B1 RNA 2 with A27U, C28G, A52C, U54G
# B4: target 1 MT 5'PFS ACG 3'PFS UUG (mixed)
# RNA 1: B1 RNA 1
# RNA 2: B1 RNA 2 with A29G, A52U, C53U, U54G
# B5: target 1 MT 5'PFS UCA 3'PFS CUC (mixed)
# RNA 1: B1 RNA 1
# RNA 2: B1 RNA 2 with A27U, A52C, C53U, U54C
# B6: target 1 MT 5'PFS UAG 3'PFS UAC (mixed)
# RNA 1: B1 RNA 1
# RNA 2: B1 RNA 2 with A27U, C28A, A29G, A52U, C53A, U54C
# B7: target 1 MT 5'PFS UGA 3'PFS CCU (mixed)
# RNA 1: B1 RNA 1
# RNA 2: B1 RNA 2 with A27U, C28G, A52C
# B8: target 1 MT 5'PFS UCA 3'PFS CUA (mixed)
# RNA 1: B1 RNA 1
# RNA 2: B1 RNA 2 with A27U, A52C, C53U, U54A
# B9: target 1 MT 5'PFS CUU 3'PFS UAA (mixed)
# RNA 1: B1 RNA 1
# RNA 2: B1 RNA 2 with A27C, C28U, A29U, A52U, C53A, U54A
# B10: target 1 MT 5'PFS GGG 3'PFS GAG (mixed)
# RNA 1: B1 RNA 1
# RNA 2: B1 RNA 2 with A27G, C28G, A29G, A52G, C53A, U54G
# B11: target 1 MT 5'PFS CUU 3'PFS UAU (mixed)
# RNA 1: B1 RNA 1
# RNA 2: B1 RNA 2 with A27C, C28U, A29U, A52U, C53A
# B12: target 1 MT 5'PFS GUU 3'PFS AUC (mixed)
# RNA 1: B1 RNA 1
# RNA 2: B1 RNA 2 with A27G, C28U, A29U, C53U, U54C
# B13: target 1 MT 5'PFS UAA 3'PFS CUC (mixed)
# RNA 1: B1 RNA 1
# RNA 2: B1 RNA 2 with A27U, C28A, A52C, C53U, U54C
# B14: target 1 insU 3' of 22,insG 3' of 16 (mixed)
# RNA 1: B1 RNA 1
# RNA 2: GGGAAUGGAUCCACAUCUACGAAUUCGUACUCAUAGAGGAGGUUAUCCGCUCACCGAGAUCGGAAGAGCACACGU
# B15: target 1 insC 3' of 14,insC 3' of 9 (mixed)
# RNA 1: B1 RNA 1
# RNA 2: GGGAAUGGAUCCACAUCUACGAAUUCGUACCAUAGAGACGGUUACUCCGCUCACCGAGAUCGGAAGAGCACACGU
# B16: target 1 MT 5'PFS ACG 3'PFS UUA (mixed)
# RNA 1: B1 RNA 1
# RNA 2: B1 RNA 2 with A29G, A52U, C53U, U54A
# B17: target 1 MT 5'PFS UAG 3'PFS UAU (mixed)
# RNA 1: B1 RNA 1
# RNA 2: B1 RNA 2 with A27U, C28A, A29G, A52U, C53A
# B18: target 1 MT 5'PFS UAC 3'PFS ACU (mixed)
# RNA 1: B1 RNA 1
# RNA 2: B1 RNA 2 with A27U, C28A, A29C
# B19: target 1 MT 5'PFS GUU 3'PFS AUA (mixed)
# RNA 1: B1 RNA 1
# RNA 2: B1 RNA 2 with A27G, C28U, A29U, C53U, U54A
# B20: target 1 MT 5'PFS GUU 3'PFS AUG (mixed)
# RNA 1: B1 RNA 1
# RNA 2: B1 RNA 2 with A27G, C28U, A29U, C53U, U54G
# B21: target 1 MT 5'PFS GGC 3'PFS UCU (mixed)
# RNA 1: B1 RNA 1
# RNA 2: B1 RNA 2 with A27G, C28G, A29C, A52U
# B22: target 1 MT 5'PFS ACA 3'PFS ACA (mixed)
# RNA 1: B1 RNA 1
# RNA 2: B1 RNA 2 with U54A
# B23: target 1 insA 3' of 17,insU 3' of 5 (mixed)
# RNA 1: B1 RNA 1
# RNA 2: B15 RNA 2 with G37A, A38G, C39A, C45U, U46C, C48G, G49U
# B24: target 1 MT 5'PFS UUG 3'PFS CGG (mixed)
# RNA 1: B1 RNA 1
# RNA 2: B1 RNA 2 with A27U, C28U, A29G, A52C, C53G, U54G
# B25: target 1 MT 5'PFS CUG 3'PFS CUC (mixed)
# RNA 1: B1 RNA 1
# RNA 2: B1 RNA 2 with A27C, C28U, A29G, A52C, C53U, U54C
# B26: target 1 MT 5'PFS UAA 3'PFS CUU (mixed)
# RNA 1: B1 RNA 1
# RNA 2: B1 RNA 2 with A27U, C28A, A52C, C53U
# B27: target 1 MT 5'PFS UAG 3'PFS UAG (mixed)
# RNA 1: B1 RNA 1
# RNA 2: B1 RNA 2 with A27U, C28A, A29G, A52U, C53A, U54G
# B28: target 1 MT 5'PFS CCU 3'PFS CUU (mixed)
# RNA 1: B1 RNA 1
# RNA 2: B1 RNA 2 with A27C, A29U, A52C, C53U
# B29: target 1 MT 5'PFS ACA 3'PFS ACC (mixed)
# RNA 1: B1 RNA 1
# RNA 2: B1 RNA 2 with U54C
# B30: target 1 MT 5'PFS GUU 3'PFS UUC (mixed)
# RNA 1: B1 RNA 1
# RNA 2: B1 RNA 2 with A27G, C28U, A29U, A52U, C53U, U54C
# B31: target 1 MT 5'PFS GGC 3'PFS UCA (mixed)
# RNA 1: B1 RNA 1
# RNA 2: B1 RNA 2 with A27G, C28G, A29C, A52U, U54A
# B32: target 1 MT 5'PFS CUG 3'PFS CUA (mixed)
# RNA 1: B1 RNA 1
# RNA 2: B1 RNA 2 with A27C, C28U, A29G, A52C, C53U, U54A
# B33: target 1 MT 5'PFS UUG 3'PFS CGA (mixed)
# RNA 1: B1 RNA 1
# RNA 2: B1 RNA 2 with A27U, C28U, A29G, A52C, C53G, U54A
# B34: target 1 MT 5'PFS UAA 3'PFS CUG (mixed)
# RNA 1: B1 RNA 1
# RNA 2: B1 RNA 2 with A27U, C28A, A52C, C53U, U54G
# B35: target 1 MT 5'PFS GUU 3'PFS UUG (mixed)
# RNA 1: B1 RNA 1
# RNA 2: B1 RNA 2 with A27G, C28U, A29U, A52U, C53U, U54G
# B36: target 1 MT 5'PFS CCU 3'PFS CUG (mixed)
# RNA 1: B1 RNA 1
# RNA 2: B1 RNA 2 with A27C, A29U, A52C, C53U, U54G
# B37: target 1 MT 5'PFS GGC 3'PFS UCC (mixed)
# RNA 1: B1 RNA 1
# RNA 2: B1 RNA 2 with A27G, C28G, A29C, A52U, U54C
# B38: target 1 MT 5'PFS GGC 3'PFS UCG (mixed)
# RNA 1: B1 RNA 1
# RNA 2: B1 RNA 2 with A27G, C28G, A29C, A52U, U54G
# B39: target 1 MT 5'PFS GUU 3'PFS UUA (mixed)
# RNA 1: B1 RNA 1
# RNA 2: B1 RNA 2 with A27G, C28U, A29U, A52U, C53U, U54A
# Molecular target: T1, EsCas13d, nuclease-dead
# Test: crRNA (strand 1, pre-loaded); Mg2+; 40 mM Tris-HCl pH 7.5, 150 mM NaCl, 6 mM MgCl2, 1 mM DTT, 0.1% Tween-20, 0.2 mg/ml BSA; 25 C; 10 min per concentration, then washed
# Conditions: tags: His6-TwinStrep-SUMO cleaved; N-terminal SNAP kept (SNAP-Surface 488); label: 3' end held by stalled T7 RNA polymerase
row,Binder,Kd [nM]
1,B1,9.3 ± 2.9
2,B2,19.5 ± 8
3,B3,~42.5
4,B4,7.45 ± 1
5,B5,12.9 ± 3.1
6,B6,16.8 ± 2.05
7,B7,36 ± 15
8,B8,9.45 ± 2.55
9,B9,35 ± 11.5
10,B10,20.5 ± 5.5
11,B11,56 ± 24
12,B12,19.3 ± 3.55
13,B13,74 ± 28
14,B14,48 ± 16
15,B15,42 ± 11
16,B16,6.9 ± 1.3
17,B17,45 ± 9
18,B18,11.2 ± 3.5
19,B19,22 ± 5.5
20,B20,56 ± 9

row,Binder,Kd [nM]
1,B21,10 ± 1.2
2,B22,~31
3,B23,25.8 ± 2.8
4,B24,~97
5,B25,4.15 ± 1.5
6,B26,48 ± 19
7,B27,73.5 ± 28
8,B28,6.65 ± 1.95
9,B29,~47.5
10,B30,10.6 ± 1.45
11,B31,17.1 ± 3.7
12,B32,5.8 ± 1.9
13,B33,47.5 ± 23.5
14,B34,25.8 ± 5.25
15,B35,11.1 ± 1.05
16,B36,21 ± 7
17,B37,17.8 ± 2.5
18,B38,11.1 ± 1.15
19,B39,13.1 ± 2.5
